PMC7459580, “Molecular Basis for Endocrine Disruption by Pesticides Targeting Aromatase and Estrogen Receptor” (International Journal of Environmental Research and Public …, 2020)

How the values were obtained:
[1] = molecular target: T1, aromatase (Aro) (Homo sapiens, UniProt P11511); assay: estrone competitive ELISA with purified aromatase and CPR; assay type: biochemical; conditions: read-out: % residual activity at 1000 nM
T1 construct: gene CYP19A1; recombinant human aromatase; with human cytochrome P450 reductase (hCPR), electron donor

[2] = system: C[C@]12CCC(=O)C=C1CC[C@@H]1[C@@H]2CC[C@]2(C)C(=O)CC[C@@H]12; assay: purified protein; conditions: heme; NADPH active site

T1 sequence (P11511 whole entry): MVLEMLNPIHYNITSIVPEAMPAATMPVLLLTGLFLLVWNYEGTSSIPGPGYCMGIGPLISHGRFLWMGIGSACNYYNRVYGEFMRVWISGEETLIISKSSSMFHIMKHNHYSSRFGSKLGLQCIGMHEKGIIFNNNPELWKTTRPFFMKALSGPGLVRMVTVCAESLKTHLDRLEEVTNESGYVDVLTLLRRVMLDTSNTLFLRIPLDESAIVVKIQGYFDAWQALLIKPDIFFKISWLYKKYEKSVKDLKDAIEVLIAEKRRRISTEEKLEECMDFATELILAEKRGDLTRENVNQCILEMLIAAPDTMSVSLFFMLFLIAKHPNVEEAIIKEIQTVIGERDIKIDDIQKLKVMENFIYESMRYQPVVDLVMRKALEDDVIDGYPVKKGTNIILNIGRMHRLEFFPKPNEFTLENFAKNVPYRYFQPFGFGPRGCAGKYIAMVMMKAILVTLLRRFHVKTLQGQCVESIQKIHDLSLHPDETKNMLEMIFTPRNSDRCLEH
T1 sequence (P16435 2-677, further chain): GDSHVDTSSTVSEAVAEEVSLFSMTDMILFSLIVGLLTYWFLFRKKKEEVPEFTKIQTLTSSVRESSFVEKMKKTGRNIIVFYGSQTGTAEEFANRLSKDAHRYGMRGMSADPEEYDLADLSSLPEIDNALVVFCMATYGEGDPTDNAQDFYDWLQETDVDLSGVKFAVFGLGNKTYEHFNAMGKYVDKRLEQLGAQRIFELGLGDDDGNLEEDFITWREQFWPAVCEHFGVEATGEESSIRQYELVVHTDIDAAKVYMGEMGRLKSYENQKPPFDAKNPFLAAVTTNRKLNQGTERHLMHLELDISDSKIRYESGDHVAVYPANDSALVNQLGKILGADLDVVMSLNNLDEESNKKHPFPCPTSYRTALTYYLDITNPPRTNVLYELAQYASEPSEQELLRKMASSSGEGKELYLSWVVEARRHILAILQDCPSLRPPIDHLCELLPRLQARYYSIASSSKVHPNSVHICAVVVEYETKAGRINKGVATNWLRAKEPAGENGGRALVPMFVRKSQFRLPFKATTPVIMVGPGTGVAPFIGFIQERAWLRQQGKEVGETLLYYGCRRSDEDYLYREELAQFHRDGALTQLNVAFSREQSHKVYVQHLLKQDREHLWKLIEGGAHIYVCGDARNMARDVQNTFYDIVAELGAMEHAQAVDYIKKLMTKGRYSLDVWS

Row | Molecule | remaining activity at 1 µM [1] [%] | Km [2] [µM] | kcat [2] [s⁻¹]
1 | CC(C)(C#N)c1cc(Cn2cncn2)cc(C(C)(C)C#N)c1 [anastrozole] | 0.7 | – | –
2 | aromatase (Aro) (Homo sapiens) | – | 0.0413 ± 0.0082 | 0.0003 ± 1.67e-05
